In article PMC12790879:

Molecular target: RHT1‐GRAS (truncated DELLA protein containing only the C‐terminal GRAS domain) (wheat (Triticum turgidum ssp. durum, cultivar Kronos))
Assay: two-hybrid; yeast-three-hybrid (Y3H), quantitative alpha-galactosidase activity; DELLA-GRAS as AD, SPL3 or SPL4 as BD, VRN1 or FUL2 expressed as third protein; Method S10

percent decrease of the DELLA-SPL3 interaction (m1 with m2) when expressed as third protein | percent decrease of the DELLA-SPL4 interaction (m1 with m3) when expressed as third protein | Substance
60% | 55% | FUL2 expressed as the third protein in the yeast‐three‐hybrid system (natural protein)
48% | 36% | VRN1 expressed as the third protein in the yeast‐three‐hybrid system (natural protein)
